# Test results: paper PMC6093632 (Science Advances, 2018)
# B1: full-length rat TRPV6 (natural protein, UniProt Q9R186 41-767, looked up)
# chain: MGWSLPKEKGLILCLWNKFCRWFHRRESWAQSRDEQNLLQQKRIWESPLLLAAKENNVQALIKLLKFEGCEVHQKGAMGETALHIAALYDNLEAAMVLMEAAPELVFEPMTSELYEGQTALHIAVINQNVNLVRALLARGASVSARATGSVFHYRPHNLIYYGEHPLSFAACVGSEEIVRLLIEHGADIRAQDSLGNTVLHILILQPNKTFACQMYNLLLSYDGGDHLKSLELVPNNQGLTPFKLAGVEGNIVMFQHLMQKRKHIQWTYGPLTSTLYDLTEIDSSGDDQSLLELIVTTKKREARQILDQTPVKELVSLKWKRYGRPYFCVLGAIYVLYIICFTMCCVYRPLKPRITNRTNPRDNTLLQQKLLQEAYVTPKDDLRLVGELVSIVGAVIILLVEIPDIFRLGVTRFFGQTILGGPFHVIIVTYAFMVLVTMVMRLTNSDGEVVPMSFALVLGWCNVMYFARGFQMLGPFTIMIQKMIFGDLMRFCWLMAVVILGFASAFYIIFQTEDPDELGHFYDYPMALFSTFELFLTIIDGPANYDVDLPFMYSITYAAFAIIATLLMLNLLIAMMGDTHWRVAHERDELWRAQVVATTVMLERKLPRCLWPRSGICGREYGLGDRWFLRVEDRQDLNRQRIRRYAQAFQQQDDLYSEDLEKDSGEKLEMARPFGAYLSFPTPSVSRSTSRSSTNWDRLRQGALRKDLQGIINRGLEDGEGWEYQI
# Biological target: the molecule itself
# Test: cryo-EM structure
protein,measurement,value
B1,stoichiometry N,4 subunits
